This note sets out measurements from the RNAGym collection of RNA variant scans (doi:10.1093/molbev/msab373).

B1: Azoarcus group I ribozyme (parent)
chain: GUGCCUUGCGCCGGGAAACCACGCAAGGGAUGGUGUCAAAUUCGGCGAAACCUAAGCGCCCGCCCGGGCGUAUGGCAACGCCGAGCCAAGCUUCGGCGCCUGCGCCGAUGAAGGUGUAGAGACUAGACGGCACCCACCUAAGGCAAACGCUAUGGUGAAGGCAUAGUCCAGGGAGUGGCGAAAGUCACACAAACCGG

Variants of B1 are the subject of this series. The series can be described thus: reverse-splicing fitness (ratio to wild type); higher = more active; in vitro selection; Mg2+ level not given. In short, it runs like this:
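An in vitro group I ribozyme library with randomized positions was T7-transcribed and gel-purified. In triplicate, 10 pmol RNA in EPPS pH 7.5 was reacted with 50 pmoles of a 30-nt RNA substrate for 1 h at 37 °C across several added MgCl2 levels (1–48 mM), then stopped with EDTA. Products were reverse transcribed from a substrate-complementary primer, PCR-amplified and sequenced (HiSeq 4000). Fitness is a variant's read proportion after selection over that before, normalised to wild type.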
For the variant C82G A111C A120C A145C C169U U176C, the reverse-splicing fitness stood at 0.0151.

As for C82G A111C A120C A145C C169U U176A, the reverse-splicing fitness turned out to be 0.0165.

Regarding C82G A111C, the reverse-splicing fitness was 0.281.

Take C82G A111C A120C A145C C150U U176G: the reverse-splicing fitness amounted to 0.00681.

For the variant C82G A111C A120C A145C C150U U176A, the reverse-splicing fitness was determined as 0.0114.

For the variant C82G A111C A120C A145C C150U U176C, the reverse-splicing fitness was determined as 0.0129.

In the case of C82G A111C A120C C150A C169A U176C, the reverse-splicing fitness was 0.019.

In the case of C82G A111C A120C C150A C169A U176G, the reverse-splicing fitness worked out at 0.00868.

C82G A111C A120C C150A C169A U176A: the reverse-splicing fitness came out at 0.0164.

On to C82G A111C A120C A145U C150U C169G U176G, for which the reverse-splicing fitness was 0.0072.

For C82G A111C A120C A145U C150U C169G U176A, the reverse-splicing fitness is 0.0133.

For C82G A111C A120C A145U C150U C169G U176C, the reverse-splicing fitness amounted to 0.0162.

In the case of C82A C150U C169A U176C, the reverse-splicing fitness is 0.0144.

With C82A C150U C169A U176A, the reverse-splicing fitness was 0.0169.

As for C82A C150U C169A U176G, the reverse-splicing fitness is 0.00593.

On to C82G A111C A120G A145C C150A C169G U176A, for which the reverse-splicing fitness turned out to be 0.0248.

For the variant C82G A111C A120G A145C C150A C169G U176G, the reverse-splicing fitness amounted to 0.00529.

As for C82G A111C A120G A145C C150A C169G U176C, the reverse-splicing fitness turned out to be 0.0158.

For C82G A111C A120C C150G C169U U176G, the reverse-splicing fitness was found to be 0.00751.

On to C82G A111C A120C C150G C169U U176A, for which the reverse-splicing fitness came to 0.00786.

Take C82G A111C A120C C150G C169U U176C: the reverse-splicing fitness came out at 0.0107.

Consider C82G A111C A120C A145U C150A C169G U176G, for which the reverse-splicing fitness stood at 0.00775.

Consider C82G A111C A120C A145U C150A C169G U176A, for which the reverse-splicing fitness amounted to 0.0143.

As for C82G A111C A120C A145U C150A C169G U176C, the reverse-splicing fitness turned out to be 0.0169.

For the variant C82G A111C A120C A145U C150A C169A U176G, the reverse-splicing fitness is 0.00868.

Consider C82G A111C A120C A145U C150A C169A U176A, for which the reverse-splicing fitness turned out to be 0.0163.

Take C82G A111C A120C A145U C150A C169A U176C: the reverse-splicing fitness was determined as 0.0129.

As to C82G A111C A120C C169U, the reverse-splicing fitness is 0.0148.

For C82G A111C A120C C169A, the reverse-splicing fitness was 0.00716.

With C82G A111C A120C C169G, the reverse-splicing fitness came out at 0.00886.

For the variant C82G A111C A120C C150U C169A U176G, the reverse-splicing fitness was found to be 0.00909.

Turning to C82G A111C A120C C150U C169A U176C, the reverse-splicing fitness worked out at 0.0129.

Take C82G A111C A120C C150U C169A U176A: the reverse-splicing fitness came to 0.0126.

As for C82G A111C A120C A145U C150U C169A U176C, the reverse-splicing fitness came to 0.0124.

In the case of C82G A111C A120C A145U C150U C169A U176G, the reverse-splicing fitness was 0.00748.

Turning to C82G A111C A120C A145U C150U C169A U176A, the reverse-splicing fitness came to 0.0138.

C82G A111C A120C A145U C150U U176A: the reverse-splicing fitness came out at 0.0132.

Take C82G A111C A120C A145U C150U U176G: the reverse-splicing fitness is 0.00688.

For C82G A111C A120C A145U C150U U176C, the reverse-splicing fitness came to 0.02.

Consider C82G A111C A120C C169A U176A, for which the reverse-splicing fitness turned out to be 0.0156.

C82G A111C A120C C169A U176G: the reverse-splicing fitness is 0.0072.

As for C82G A111C A120C C169A U176C, the reverse-splicing fitness is 0.0194.

Take C82G A111C A120C A145G C169U U176G: the reverse-splicing fitness was 0.00614.

C82G A111C A120C A145G C169U U176C: the reverse-splicing fitness came to 0.0158.

Take C82G A111C A120C A145G C169U U176A: the reverse-splicing fitness was determined as 0.0139.

As for C82A C150U C169U, the reverse-splicing fitness is 0.0139.

On to C82A C150U C169G, for which the reverse-splicing fitness is 0.0106.

In the case of C82A C150U C169A, the reverse-splicing fitness turned out to be 0.0105.

With C82G A111C A120C A145U C169A U176A, the reverse-splicing fitness was 0.0143.

As to C82G A111C A120C A145U C169A U176C, the reverse-splicing fitness came out at 0.0142.

Turning to C82G A111C A120C A145U C169A U176G, the reverse-splicing fitness stood at 0.0056.

Turning to C82G A111C A120C A145G C169G U176G, the reverse-splicing fitness was 0.00618.

In the case of C82G A111C A120C A145G C169G U176C, the reverse-splicing fitness turned out to be 0.0253.

For the variant C82G A111C A120C A145G C169G U176A, the reverse-splicing fitness was found to be 0.0188.

With C82G A111C A120G A145C, the reverse-splicing fitness was determined as 0.013.

Turning to C82G A111C A120C C150U C169G U176G, the reverse-splicing fitness came out at 0.0066.

As for C82G A111C A120C C150U C169G U176C, the reverse-splicing fitness turned out to be 0.0171.

As for C82G A111C A120C C150U C169G U176A, the reverse-splicing fitness turned out to be 0.0152.

Take C82A C150U C169G U176C: the reverse-splicing fitness came to 0.0175.

Turning to C82A C150U C169G U176G, the reverse-splicing fitness stood at 0.00542.

C82A C150U C169G U176A: the reverse-splicing fitness was found to be 0.014.

As to C82G A111C A120C A145G U176C, the reverse-splicing fitness amounted to 0.0314.

Regarding C82G A111C A120C A145G U176A, the reverse-splicing fitness came out at 0.0172.

For the variant C82G A111C A120C A145G U176G, the reverse-splicing fitness came out at 0.00761.

As to C82A C150U U176G, the reverse-splicing fitness is 0.069.

Turning to C82A C150U U176C, the reverse-splicing fitness was found to be 0.253.

Consider C82A C150U U176A, for which the reverse-splicing fitness was found to be 0.24.

As for C82G A111C A120G A145C C150A, the reverse-splicing fitness turned out to be 0.00698.

As to C82G A111C A120C A145G C169A U176G, the reverse-splicing fitness came out at 0.00796.

Consider C82G A111C A120C A145G C169A U176A, for which the reverse-splicing fitness stood at 0.0223.

Consider C82G A111C A120C A145G C169A U176C, for which the reverse-splicing fitness is 0.0254.

In the case of C82G A111C A120C A145U C150G C169U U176C, the reverse-splicing fitness worked out at 0.0121.

For C82G A111C A120C A145U C150G C169U U176A, the reverse-splicing fitness turned out to be 0.00736.

For C82G A111C A120C A145U C150G C169U U176G, the reverse-splicing fitness was found to be 0.0068.

For the variant C82G A111C A120C A145C C150G C169G U176C, the reverse-splicing fitness came out at 0.00983.

C82G A111C A120C A145C C150G C169G U176G: the reverse-splicing fitness was 0.00608.

With C82G A111C A120C A145C C150G C169G U176A, the reverse-splicing fitness came out at 0.00984.

Take C82G A111C A120C A145U C169G U176C: the reverse-splicing fitness stood at 0.0177.

As to C82G A111C A120C A145U C169G U176G, the reverse-splicing fitness is 0.00713.

As to C82G A111C A120C A145U C169G U176A, the reverse-splicing fitness stood at 0.0141.

On to C82G A111C A120C A145G C150U U176A, for which the reverse-splicing fitness was determined as 0.0138.

Consider C82G A111C A120C A145G C150U U176C, for which the reverse-splicing fitness came to 0.0215.

In the case of C82G A111C A120C A145G C150U U176G, the reverse-splicing fitness is 0.00788.
